Data from the nanobody polyreactivity screen of Harvey et al. (2022).

Assay: yeast display, Sf9 membrane polyspecificity reagent, FACS + sequencing; frameworks hold sequencing errors
How it was run: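 Synthetic nanobody libraries on Saccharomyces cerevisiae BJ5465 were galactose-induced for 36–48 hours, stained 1 hour at 4 °C with 10% biotinylated, detergent-solubilized Sf9 membrane reagent and enriched on streptavidin microbeads. FACS then separated cells into low and high (top ~1%) gates by anti-HA (expression) and streptavidin (reagent binding) fluorescence. Genes were colony-PCR amplified, MiSeq 2 × 250 sequenced and CDR-length filtered. A clone's polyreactivity label is that of its gate of origin.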

Row | Sequence | polyreactivity (PSR sort gate)
1 | QVQLVESGGGLVQAGGSLRLSCAASGSIFYYYAIGWYRKAPGKEREFVATIRRSGASTYYADSVKGRFTISRDNAKNTVYLQMNSLKPEDTAVYYCNAASARRPIYEAARWSKYDYWGQGTQVTVSS | low polyreactivity
2 | QVQLVESGGGLVQAGGSLRLSCAASGSIFYYYAMARYRPAPGKERELVASITSSGGTTSYADSVKGRFRISRDNAKNTVYLQMISLKPEDTAVYYCNAQVYRYRIGYDYWGQGTQVTVSS | low polyreactivity
3 | QVQLVESGGGLVQAGGSLRLSCAASGSIFYYYAMGWYRQAPGKERELVAAITSGGSTYYADSVKGRFTISRDNAKNTVYYQMNSLIPEDTAVYYCAAVFYAAYLRYVWYSYDYWGQGTQVTVSS | low polyreactivity
4 | QVQLVESGGGLVQAGGSLRLSCAASGSIFYYYAMGWYRQAPGKERELVAAITYRGTRTYYADSVKGRFTISRDNAKNTVYLLMNSLKPEDTAVYYCAAERRIYSSDSWGQGTQVTVSS | high polyreactivity
5 | QVQLVESGGGLVQAGGSLRLSCAASGSIFYYYAMGWYRQAPGKERELVASISSSGSTNYADSVKGRFTISRDNAKNTVYLLMKRLKPEDTAVYYCYADLSLGSYYSYYAYNSWGQGTQVTVSS | low polyreactivity
6 | QVQLVESGGGLVQAGGSLRLSCAASGSIFYYYSMGWYRQAPGKERELVATISSTTSTYADSVKGRFTISRDNAKNTVYLQMNSLKPEDTAVYYCSYDYWGQGTQVTVSS | low polyreactivity
7 | QVQLVESGGGLVQAGGSLRLSCAASGSIGVNAMGWYRQAPGKERELVATISNSGGSTYYADSVKGRFTISRDNAKNTVYLQINSLKPEDTAVYYCAVAVTSYSSKKLYYWGQGTQVTVSS | low polyreactivity
8 | QVQLVESGGGLVQAGGSLRLSCAASGSIGYYAMGWYRQAPGKERELVAAIDWSGGDTYYADSVKGRFTISRDNAKNTVYLQMNSLKPEDTAVYYCAKRLYLKTCAASSADDYWGQGTQVTVSS | low polyreactivity
9 | QVQLVESGGGLVQAGGSLRLSCAASGSIIASNAMGWYRHAPWKERELVAAITNGGRTNYADSVKGRFTISRDNAKNTVYLQMNSMKPEDTAVYYCDALWSRCAGFEYCGQGTQVTVSS | high polyreactivity
10 | QVQLVESGGGLVQAGGSLRLSCAASGSIIGGYAMGWYRQAPGKERELVAAITRSGGRTYYADSVKGRFTISRDNAKNTVYLQMNSLKPEDTAVYYCNADRRRRFGYWGQGTQVTVSS | high polyreactivity
11 | QVQLVESGGGLVQAGGSLRLSCAASGSIIGRNAMGWYRQAPGKERELVAAISTRGGRTYYADSVKGRFTISRDNAKNTVYLQMNSLKPEDTAVYYCADTYQYLKSGYYWGQGTQVTVSS | high polyreactivity
12 | QVQLVESGGGLVQAGGSLRLSCAASGSIIGRYAMGWYRQAPAKERELVATITFRDTSTYYADSVKGRFTISRDNAKNTVYLQMNSLKTEDTAVYYCAAVRADLWDIARYDYWGQGTQVTVSS | low polyreactivity
13 | QVQLVESGGGLVQAGGSLRLSCAASGSIIGTYAMGWYRQAPGKERELVAAISSSGGRTYYADSVKGRFTISRDNAKNTVYLQMNSLKPEDTAVYYCNTRPGTVFRAGGDYWGQGTQVTVSS | high polyreactivity
14 | QVQLVESGGGLVQAGGSLRLSCAASGSIIHRNAMGWYRQAPGKERELVATITSNGGSTYYADSVKGRFTISRDNAKNTVYLQMNSLKPEETAVYYCARKYRSPISALLTGDYWGQGTQVTVSS | low polyreactivity
15 | QVQLVESGGGLVQAGGSLRLSCAASGSIIKWNAMGWDRKAPGQEREFVASITRSGGSTYYADSVKGRITISRDNAKNTVYLQMNSRKPEDTAVFYCARSYGWYRWAGYDYWGKGTQVTVSS | high polyreactivity
16 | QVQLVESGGGLVQAGGSLRLSCAASGSIIPLYAMGWYRQPPGKERELVAAITSNGGRTYYADSVKGRFTISRDNAKNTVYLQMNSLKPEDTAVYYCNKYLLDYRRGRSDYWGQGTQVTVSS | low polyreactivity

Row | Sequence | polyreactivity (PSR sort gate)
17 | QVQLVESGGGLVQAGGSLRLSCAASGSIIQYYAMGWYRQAPGKERELVASITWSGGSTYYADSVKGRFTISRDNAKNTVFLQMNSLKPEDTAVYYCAKRLYLKTWAASTADDYWGQGTQVTVSS | low polyreactivity
18 | QVQLVESGGGLVQAGGSLRLSCAASGSIIRRNVMGWYRQAPGKERELVAASSWSGDRTYYADSVKGRFTISRDNAKNTVYLQMNSLKPEDTAVYYCAAANASPRRYGQYDYWGQGTQVTVSS | high polyreactivity
19 | QVQLVESGGGLVQAGGSLRLSCAASGSIIRYNAMGWYRQAPGKERELVAAITKGAGSTYYADSVKGRFTISRDNAKNTVYLQMNSLKPEDTAVYYWNKARGSGHTYYSWGLGTQVTVSS | high polyreactivity
20 | QVQLVESGGGLVQAGGSLRLSCAASGSIISYYAMGWYRQAPGKERELVAAITASGGSTYYADSVKGRFTISRDNAKNTVYLQMNSLKPEDTAVYYCAAGTHTDYGRYYYWGQGTQVTVSS | low polyreactivity
21 | QVQLVESGGGLVQAGGSLRLSCAASGSIITPNAMGWYRQAPGQERELVAAISSGGSTNYADSVKGRITISRDNAKNTVYFQLTCLKPEDTAVYYCAKSIDGWYWRRRRYDYWGQGTQVTVSS | low polyreactivity
22 | QVQLVESGGGLVQAGGSLRLSCAASGSIITRNAMGWYRQAPGKERELVATIRYRGGSTYYADSVKGRFTISRDNAKNTVFLQMNSLKPEDTAVYYCAARRSHPPDPRFRYGYWGQGTQVTVSS | high polyreactivity
23 | QVQLVESGGGLVQAGGSLRLSCAASGSIITWNAMGWYRQAPGKERELVAAIDWDGGSTYYADSVKGRFTISRDNAKNTVYLQMNSLKPEDTAVYYCAATYGWYTGRYPSGHYYYWGQGTQVTVSS | low polyreactivity
24 | QVQLVESGGGLVQAGGSLRLSCAASGSIITYYAMGWYRQAPGKDSELVAVISASGGRTYYADSVKGRFTISRDNAKNTVYLQMISLKPEDTAVYYCAAYQSIYSFKFGYWGQGTQVTVSS | high polyreactivity
25 | QVQLVESGGGLVQAGGSLRLSCAASGSIIVRYAMGWDRQAPGKERELVAAISKSGGSTHYADSVKGRFTISRDNAKNTVYLQMNSLKPEDTAVYYCAAVYYYRFTTYYYWGQGTQVTVSS | high polyreactivity
26 | QVQLVESGGGLVQAGGSLRLSCAASGSIIVRYAMGWYRQAPGKERELVATITFRDTSTYYADSVKGRFTISRDNAKNTVYLQMNSLKPEDTAVYYCAAVRADLWDIARYDYWGQGTQVTVSS | low polyreactivity
27 | QVQLVESGGGLVQAGGSLRLSCAASGSIIVTYAMGWYRQAPGKERELVATISGGGSTTYADSVKGRFTISRDNAKNTVYLQMNSLKPEDTAVYYCATDARYTSHRTAGYDYWGQGTQVTVSS | low polyreactivity
28 | QVQLVESGGGLVQAGGSLRLSCAASGSIIVYYAMGWYRQAPGKERELVAAIRVRGGSTYYADSVKGRFTISRDTAKNTVYLQMNSLKPEDTAVYYCATAGRYGRYRTNAYRSKYDYWGQGTQVTVSS | high polyreactivity
29 | QVQLVESGGGLVQAGGSLRLSCAASGSIIWLYAMGWYRQAPGKERELVAAISSGGSTYYADSVKGRFTISRDNAKNTVYLQMNSLKPEDTAVYYCNVDYWQPWQYDYWGQGTQVTVSS | high polyreactivity
30 | QVQLVESGGGLVQAGGSLRLSCAASGSIIYHYAWGWYRQAPGQERELVDAITRCGGSTYYADSVKGRFTISRDNAKNTVYLQMHSLKPEDTAVYYCAREAGRYAYKYYWWQRTDYDYGGQGTQVTVSS | low polyreactivity
31 | QVQLVESGGGLVQAGGSLRLSCAASGSIIYLYTMGWYRQAPGKERELVAAISSSGSSTYYADSVKGRFTISRDNAKNTVYLQMNSLKPEYTSVYYCAARYSYDSYYWGKGTQVTVSS | high polyreactivity
